Legend:
[1] = molecular target: IL-2Rβ (CD122) on NK cells (human) (UniProt P14784); test: cell-based or functional assay
[2] = molecular target: high affinity IL-2Rαβγ complex on Treg cells (human) (UniProt P01589); test: cell-based or functional assay
Sequence of UniProt P01589 (P01589 22-272, chain 1 of 3): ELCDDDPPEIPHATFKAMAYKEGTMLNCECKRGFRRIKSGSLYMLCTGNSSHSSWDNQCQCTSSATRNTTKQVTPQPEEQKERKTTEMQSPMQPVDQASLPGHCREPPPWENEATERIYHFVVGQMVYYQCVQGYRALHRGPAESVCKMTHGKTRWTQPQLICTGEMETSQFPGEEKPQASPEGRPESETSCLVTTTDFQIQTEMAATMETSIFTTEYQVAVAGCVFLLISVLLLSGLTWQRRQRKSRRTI
Sequence of UniProt P01589 (P14784 27-551, chain 2 of 3, further chain): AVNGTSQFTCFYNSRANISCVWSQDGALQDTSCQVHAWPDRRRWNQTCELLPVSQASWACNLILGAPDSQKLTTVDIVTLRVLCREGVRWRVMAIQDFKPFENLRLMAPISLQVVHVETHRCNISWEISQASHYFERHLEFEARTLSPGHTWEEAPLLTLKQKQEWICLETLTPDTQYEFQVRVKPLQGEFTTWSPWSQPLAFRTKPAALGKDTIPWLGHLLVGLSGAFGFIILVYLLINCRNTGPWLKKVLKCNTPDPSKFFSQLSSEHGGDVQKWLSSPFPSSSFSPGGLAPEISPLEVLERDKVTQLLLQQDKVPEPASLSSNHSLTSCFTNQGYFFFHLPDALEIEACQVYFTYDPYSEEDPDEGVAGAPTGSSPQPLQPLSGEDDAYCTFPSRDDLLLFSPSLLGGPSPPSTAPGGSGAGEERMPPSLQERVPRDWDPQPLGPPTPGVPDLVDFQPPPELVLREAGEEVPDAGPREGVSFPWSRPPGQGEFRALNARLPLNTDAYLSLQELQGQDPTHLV
Sequence of UniProt P01589 (P31785 23-369, chain 3 of 3, further chain): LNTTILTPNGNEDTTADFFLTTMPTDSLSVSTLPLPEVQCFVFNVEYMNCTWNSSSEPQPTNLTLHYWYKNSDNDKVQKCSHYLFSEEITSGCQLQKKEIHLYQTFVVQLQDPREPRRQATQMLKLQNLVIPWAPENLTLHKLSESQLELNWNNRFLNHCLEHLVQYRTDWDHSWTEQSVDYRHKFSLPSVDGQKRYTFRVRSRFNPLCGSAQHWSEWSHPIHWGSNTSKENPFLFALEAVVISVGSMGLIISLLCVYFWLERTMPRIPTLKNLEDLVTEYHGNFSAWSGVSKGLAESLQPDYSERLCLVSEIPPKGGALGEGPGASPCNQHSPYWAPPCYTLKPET

Sequence of UniProt P14784 (P14784 27-551): as the sequence (P14784 27-551, chain 2 of 3, further chain) above

B1: CD20-T5-NKp46-IL2v3 (protein, part only; not given: anti-CD20 antibody chains, anti-NKp46 domain, part only)
chain, part: SSSTKKTQLQLEHLLLDLQMILNGINNYKNPKLTAMLAKKFYMPKKATELKHLQCLEEELKPLEEVLNLAQSKNFHLRPRDLISNINVIVLELKGSETTFMCEYADETATIVEFLNRWITFCQSIISTLT
[1]
  % pSTAT5, EC50 NK cells: 10 pM
[2]
  % pSTAT5, EC50 Tregs: 0.7 nM

— patent US20240199750A1
